Measured values from article PMC7408900, “Cancer-Associated Substitutions in RNA Recognition Motifs of PUF60 and U2AF65 Reveal Residues Required for Correct Folding and 3′ Splice-Site Selection”.

Assays:
U2AF65 E162K [1] = target: T1, U2AF65 E162K (human, UniProt P26368 1-475, E162K); test: EMSA; Kd only in figure; Hill 2.23; binding not apparently reduced; EMSA: 40 mM Tris pH 8.0, 5 mM MgCl2, 0.25 ug/uL heparin, 0.01% Triton, 1 mM DTT, room temperature 20 min; 6% native PAGE in 0.5x TBE at 4 C; 15-17 nM biotin-RNA; settings: protein: recombinant; tags: N-terminal GST (pGEX6P); label: 5' biotin; single strand
T1 sequence (P26368 whole entry E162K, one chain of several): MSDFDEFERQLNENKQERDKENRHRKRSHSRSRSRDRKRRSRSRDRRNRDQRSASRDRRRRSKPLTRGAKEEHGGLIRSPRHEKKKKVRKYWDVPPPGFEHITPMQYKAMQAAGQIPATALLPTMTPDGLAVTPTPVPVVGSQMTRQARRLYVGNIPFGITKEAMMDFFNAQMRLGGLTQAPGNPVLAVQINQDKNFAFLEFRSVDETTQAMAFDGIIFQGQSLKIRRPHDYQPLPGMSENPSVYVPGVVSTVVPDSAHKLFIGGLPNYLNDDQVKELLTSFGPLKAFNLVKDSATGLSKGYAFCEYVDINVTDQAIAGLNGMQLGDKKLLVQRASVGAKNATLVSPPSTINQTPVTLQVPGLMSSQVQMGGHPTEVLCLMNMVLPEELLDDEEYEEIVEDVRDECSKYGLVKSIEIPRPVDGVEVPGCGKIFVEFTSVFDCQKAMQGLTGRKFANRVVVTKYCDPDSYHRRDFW

PUF60 H169Y = PUF60 H169Y (human, UniProt Q9UHX1 1-559, H169Y); test: EMSA; higher affinity than cr probe; approximate Kd only in figure; Hill 2.4; EMSA: 40 mM Tris pH 8.0, 5 mM MgCl2, 0.25 ug/uL heparin, 0.01% Triton, 1 mM DTT, room temperature 20 min; 6% native PAGE in 0.5x TBE at 4 C; 15-17 nM biotin-RNA; settings: protein: recombinant; tags: 2xHis-lipoyl-TEV, removed by TEV; label: 5' biotin; single strand
Chain of PUF60 H169Y (Q9UHX1 whole entry H169Y): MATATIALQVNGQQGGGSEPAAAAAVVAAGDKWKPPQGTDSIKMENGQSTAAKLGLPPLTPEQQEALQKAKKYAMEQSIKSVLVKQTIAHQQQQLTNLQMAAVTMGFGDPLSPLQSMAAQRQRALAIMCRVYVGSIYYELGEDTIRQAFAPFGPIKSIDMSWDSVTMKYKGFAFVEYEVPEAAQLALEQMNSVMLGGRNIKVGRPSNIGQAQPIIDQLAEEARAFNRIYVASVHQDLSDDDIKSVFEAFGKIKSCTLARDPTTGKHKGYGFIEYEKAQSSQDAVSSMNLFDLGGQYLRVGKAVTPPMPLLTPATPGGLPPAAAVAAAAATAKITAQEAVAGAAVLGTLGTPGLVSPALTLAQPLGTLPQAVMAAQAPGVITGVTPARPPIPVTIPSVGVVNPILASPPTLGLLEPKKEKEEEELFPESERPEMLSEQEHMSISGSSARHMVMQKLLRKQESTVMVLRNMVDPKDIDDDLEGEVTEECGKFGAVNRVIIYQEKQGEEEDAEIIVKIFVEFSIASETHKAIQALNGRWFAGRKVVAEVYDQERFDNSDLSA

U2AF65 E162K [2] = target: T1, U2AF65 E162K; test: EMSA; Kd only in figure; Hill 1.84; binding not apparently reduced; EMSA: 40 mM Tris pH 8.0, 5 mM MgCl2, 0.25 ug/uL heparin, 0.01% Triton, 1 mM DTT, room temperature 20 min; 6% native PAGE in 0.5x TBE at 4 C; 15-17 nM biotin-RNA; settings: protein: recombinant; tags: N-terminal GST (pGEX6P); label: 5' biotin; single strand

Binder | binding result (U2AF65 E162K [1]) | binding result (PUF60 H169Y) | binding result (U2AF65 E162K [2])
UUUUUUUGUUUUGUUUUGUGUUUUUUGAUAGA (ssRNA) [UBE2F-can3'ss-32] | binds | binds | 
CUUUUUGUUUCCUUUUUUUUUUAAUUUAAAGG (ssRNA) [UBE2F-cr3'ss-32] |  |  | binds
